Where two headings read alike, the source gives them in different places.
Tests used:
[1] = target: T1, human transferrin receptor fused to EGFP, expressed on CHO cells (human, UniProt P02786 1-760); assay: flow cytometry, CHO-hTfR-EGFP cells
T1 construct: whole, on cells; also called hTfR; human TfR

[2] = target: T2, mouse transferrin receptor fused to EGFP, expressed on CHO cells (mouse, UniProt Q62351 1-763); assay: flow cytometry, CHO-mTfR-EGFP cells
T2 construct: whole, on cells; also called mTfR; mouse TfR
T2 sequence (Q62351 whole entry, the tested form may be a part): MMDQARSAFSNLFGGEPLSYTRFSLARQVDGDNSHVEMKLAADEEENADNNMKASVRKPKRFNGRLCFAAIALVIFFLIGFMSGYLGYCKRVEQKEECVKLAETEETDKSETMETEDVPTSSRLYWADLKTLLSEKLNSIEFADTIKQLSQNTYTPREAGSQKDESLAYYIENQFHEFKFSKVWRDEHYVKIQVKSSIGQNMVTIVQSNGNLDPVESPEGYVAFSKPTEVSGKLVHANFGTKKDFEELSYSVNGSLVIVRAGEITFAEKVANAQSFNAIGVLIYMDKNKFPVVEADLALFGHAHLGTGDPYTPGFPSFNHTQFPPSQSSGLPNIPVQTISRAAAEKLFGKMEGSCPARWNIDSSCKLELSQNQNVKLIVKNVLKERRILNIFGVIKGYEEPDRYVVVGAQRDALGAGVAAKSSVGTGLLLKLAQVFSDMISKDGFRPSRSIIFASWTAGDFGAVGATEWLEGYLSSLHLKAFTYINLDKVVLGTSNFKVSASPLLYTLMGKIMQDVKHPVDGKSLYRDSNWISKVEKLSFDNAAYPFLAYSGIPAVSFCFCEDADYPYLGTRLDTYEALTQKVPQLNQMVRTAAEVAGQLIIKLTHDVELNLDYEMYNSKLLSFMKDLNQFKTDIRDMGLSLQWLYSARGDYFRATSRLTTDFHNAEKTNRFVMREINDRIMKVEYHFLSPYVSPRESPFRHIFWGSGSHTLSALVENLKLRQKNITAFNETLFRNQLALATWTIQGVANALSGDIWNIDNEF

[3] = target: T3, mouse TfR ectodomain fused to a mouse IgG1 Fc fragment (mouse, UniProt Q62351 89-763); assay: SPR (Biacore T200)
T3 construct: extracellular domain; produced in-house; not shown: mouse IgG1 Fc fragment
T3 sequence (Q62351 89-763): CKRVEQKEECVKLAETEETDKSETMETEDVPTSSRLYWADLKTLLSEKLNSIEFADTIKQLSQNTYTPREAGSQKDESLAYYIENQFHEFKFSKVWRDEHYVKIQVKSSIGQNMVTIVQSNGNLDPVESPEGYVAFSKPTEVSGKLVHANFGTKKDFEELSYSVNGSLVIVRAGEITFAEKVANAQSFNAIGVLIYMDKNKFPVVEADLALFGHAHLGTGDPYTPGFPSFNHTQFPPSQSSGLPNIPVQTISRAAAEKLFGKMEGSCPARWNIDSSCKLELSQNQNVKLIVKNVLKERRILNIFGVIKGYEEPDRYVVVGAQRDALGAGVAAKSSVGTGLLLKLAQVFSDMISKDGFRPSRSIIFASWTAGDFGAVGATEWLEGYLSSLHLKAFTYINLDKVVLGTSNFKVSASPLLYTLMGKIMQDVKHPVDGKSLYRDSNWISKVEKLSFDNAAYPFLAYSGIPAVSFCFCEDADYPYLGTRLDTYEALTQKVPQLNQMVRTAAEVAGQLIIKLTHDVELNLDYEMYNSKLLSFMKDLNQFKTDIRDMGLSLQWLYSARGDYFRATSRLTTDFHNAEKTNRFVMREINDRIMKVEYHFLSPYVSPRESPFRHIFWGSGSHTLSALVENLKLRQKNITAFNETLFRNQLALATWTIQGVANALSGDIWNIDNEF

[4] = target: T2, mouse transferrin receptor fused to …; assay: flow cytometry, CHO-mTfR-EGFP cells, apparent Kd
[5] = target: T4, rhesus monkey transferrin receptor fused to EGFP, expressed on CHO cells (rhesus monkey, UniProt H9EXL1 1-760); assay: flow cytometry, CHO-rhTfR-EGFP cells, apparent Kd
T4 construct: also called rhTfR; rhesus monkey TfR; not shown: EGFP fused to the cytoplasmic end of the receptor
T4 sequence (H9EXL1 entry or part of it limits assumed, form in doubt): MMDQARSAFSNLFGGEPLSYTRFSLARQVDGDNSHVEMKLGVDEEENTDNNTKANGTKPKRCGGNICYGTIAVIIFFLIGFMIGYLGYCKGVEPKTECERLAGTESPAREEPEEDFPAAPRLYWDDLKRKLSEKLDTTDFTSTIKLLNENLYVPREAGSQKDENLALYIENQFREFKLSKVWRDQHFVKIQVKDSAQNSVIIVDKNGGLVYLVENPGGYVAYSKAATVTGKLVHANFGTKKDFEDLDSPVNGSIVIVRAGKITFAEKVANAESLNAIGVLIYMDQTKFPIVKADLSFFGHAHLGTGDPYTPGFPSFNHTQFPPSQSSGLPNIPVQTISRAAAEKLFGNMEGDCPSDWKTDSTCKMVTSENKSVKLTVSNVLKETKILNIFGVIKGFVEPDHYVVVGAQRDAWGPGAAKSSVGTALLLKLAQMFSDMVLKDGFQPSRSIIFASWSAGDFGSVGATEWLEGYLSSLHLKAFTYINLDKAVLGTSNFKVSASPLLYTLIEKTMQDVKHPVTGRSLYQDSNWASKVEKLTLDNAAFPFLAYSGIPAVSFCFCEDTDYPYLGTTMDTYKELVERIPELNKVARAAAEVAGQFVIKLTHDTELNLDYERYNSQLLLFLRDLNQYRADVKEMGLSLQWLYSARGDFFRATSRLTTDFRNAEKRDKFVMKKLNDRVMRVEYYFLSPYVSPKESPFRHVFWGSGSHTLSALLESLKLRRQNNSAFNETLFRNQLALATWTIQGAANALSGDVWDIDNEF

[6] = target: T2, mouse transferrin receptor fused to …; assay: flow cytometry, CHO-mTfR-EGFP cells, apparent Kd; remark: listed apart in the source
[7] = target: T1, human transferrin receptor fused to …; assay: flow cytometry, CHO-hTfR-EGFP cells, apparent Kd
[8] = target: murine TfR expressed by murine neuroblastoma Neuro-2a cells (mouse, UniProt Q62351 1-763); assay: cell-based or functional assay
Chain of murine TfR expressed by murine neuroblastoma Neuro-2a cells (Q62351 whole entry, the tested form may be a part): as the sequence (Q62351 whole entry, the tested form may be a part) above

[9] = target: T1, human transferrin receptor fused to …; assay: cell-based or functional assay

T1 sequence (P02786 whole entry, the tested form may be a part): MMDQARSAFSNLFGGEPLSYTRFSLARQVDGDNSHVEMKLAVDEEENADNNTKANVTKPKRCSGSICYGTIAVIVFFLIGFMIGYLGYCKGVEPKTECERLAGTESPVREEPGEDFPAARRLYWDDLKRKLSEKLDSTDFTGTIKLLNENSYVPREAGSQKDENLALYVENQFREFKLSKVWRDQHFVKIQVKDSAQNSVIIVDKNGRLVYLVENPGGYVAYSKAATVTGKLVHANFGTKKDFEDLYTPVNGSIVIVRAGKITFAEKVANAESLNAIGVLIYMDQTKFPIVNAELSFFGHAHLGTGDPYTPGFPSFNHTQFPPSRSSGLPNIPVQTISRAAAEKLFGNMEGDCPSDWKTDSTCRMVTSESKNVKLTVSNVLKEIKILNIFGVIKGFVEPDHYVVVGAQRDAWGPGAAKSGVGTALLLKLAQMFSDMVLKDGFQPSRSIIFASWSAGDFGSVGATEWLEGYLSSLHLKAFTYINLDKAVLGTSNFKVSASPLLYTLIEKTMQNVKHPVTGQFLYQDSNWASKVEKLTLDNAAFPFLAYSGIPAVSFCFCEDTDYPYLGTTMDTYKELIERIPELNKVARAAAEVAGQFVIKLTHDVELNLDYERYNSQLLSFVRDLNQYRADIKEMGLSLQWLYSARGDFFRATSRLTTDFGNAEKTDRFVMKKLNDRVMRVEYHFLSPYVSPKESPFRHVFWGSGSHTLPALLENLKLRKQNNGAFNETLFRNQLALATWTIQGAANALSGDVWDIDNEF

B1: VHH A17 (C5^V17) (VHH)
VHH: EVQLVESGGGVVQPGGSLKLSCVASGTDFSINFIRWYRQAPGKQREFVAGFTATGNTNYADSMKGRFTISRDNTKNAVYLQIDSLKPEDTAVYYCYMIDKWGQGTQVTVSS
- binding result [1]: binds
- binding result [2]: binds

B2: VHH A19 (C5^V19) (VHH)
VHH: EVQLVESGGGVVQPGGSLKLSCVASGTDFSINFIRWYRQAPGKQREFVAGFTATGNTNYADSMKGRFTISRDNTKNAVYLQIDSLKPEDTAVYYCYMLEKWGQGTQVTVSS
- binding result [2]: binds

B3: VHH D (H3) (VHH)
VHH: EVQLVESGGGEVQPGGSLKLSCVASGTDFSINFVRWYRQRPGKQREWVAGFTANGDTNYPDSMKGRFTISRDNAKNTVYLQINSLKSEDTAVYYCYMLDNWGQGTQVTVSS
- kon [3]: 5.81e+06 M⁻¹ s⁻¹

B4: 13C3-LC-VHH A (bispecific antibody)
heavy: QVQLQQSGPELVRPGVSVKISCKGSGYTFTDYAMHWVKQSHAKSLEWIGVISTKYGKTNYNQKFKGKATMTVDKSSSTAYMELARLTSEDSAIYYCARGDDGYSWGQGTSVTVSSAKTTPPSVYPLAPGSAAQTNSMVTLGCLVKGYFPEPVTVTWNSGSLSSGVHTFPAVLQSDLYTLSSSVTVPSSTWPSETVTCNVAHPASSTKVDKKIVPRDCGCKPCICTVPEVSSVFIFPPKPKDVLTITLTPKVTCVVVDISKDDPEVQFSWFVDDVEVHTAQTQPREEQFNSTFRSVSELPIMHQDWLNGKEFKCRVNSAAFPAPIEKTISKTKGRPKAPQVYTIPPPKEQMAKDKVSLTCMITDFFPEDITVEWQWNGQPAENYKNTQPIMDTDGSYFVYSKLNVQKSNWEAGNTFTCSVLHEGLHNHHTEKSLSHSPG
light: DVVMTQTPLSLPVSLGDQASISCRSGQSLVHSNGNTYLHWYLQKPGQSPKLLIYTVSNRFSGVPDRFSGSGSGSDFTLKISRVEAEDLGVYFCSQNTFVPWTFGGGTKLEIKRADAAPTVSIFPPSSEQLTSGGASVVCFLNNFYPKDINVKWKIDGSERQNGVLNSWTDQDSKDSTYSMSSTLTLTKDEYERHNSYTCEATHKTSTSPIVKSFNRNECSGSGGGGGMAEVQLVESGGGVVQPGGSLKLSCVASGTDFSINFIRWYRQAPGKQREFVAGFTATGNTNYADSMKGRFTISRDNTKNAVYLQIDSLKPEDTAVYYCYMLDKWGQGTQVTVSSAAA
- Kd [4]: 106 nM

B5: B8^V9 (VHH)
VHH: EVQLVESGGGVVQPGGSLRLSCAASGEIFSINFMRWYRQAPGKQREWVAGFTRDGSKNYPDSAKGRFTISRDNAKNTVYLQIDSLKPEDTAVYYCYMLDTWGQGTQVTVSS
- Kd [5]: 24 nM

B6: E9 (VHH)
VHH: EVQLVESGGGLVQPGGSLRLSCVSSATFGGYSMGWFRQAPGKEREFVAAITWNGGIIKDYADGVMGRFTISRNSALNTVYLQMDSLKSTDTGVYVCAGDRTYYAGGYVPTSEREYAFWGQGTQVTVSS
- Kd [6]: 1310 nM
- Kd [5]: 1540 nM
- Kd [7]: 1290 nM

B7: C5-siSOD1m-5'VP (other)
VHH: EVQLVESGGGVVQPGGSLKLSCVASGTDFSINFIRWYRQAPGKQREFVAGFTATGNTNYADSMKGRFTISRDNTKNAVYLQIDSLKPEDTAVYYCYMLDKWGQGTQVTVSSAAAEQKLISEEDLNGAAHHHHHHGS
modifications: siSOD1m-5'VP siRNA (SEQ ID NOs 465/466) linked by a stable linker to the tag
- mean IC50 of mSOD1 mRNA downregulation, free uptake on Neuro-2a cells [8]: 7.4 nM

B8: VHH A-siGFPst1 bioconjugate (other)
VHH: EVQLVESGGGVVQPGGSLKLSCVASGTDFSINFIRWYRQAPGKQREFVAGFTATGNTNYADSMKGRFTISRDNTKNAVYLQIDSLKPEDTAVYYCYMLDKWGQGTQVTVSSAAAEQKLISEEDLNGAAHHHHHHGS
modifications: siGFPst1 siRNA (3' end of sense strand, DBCO) clicked to 3-azido-1-propanamine on the Gln of the C-terminal Q-tag
- IC50 of the reduction of GFP protein levels, 6-hour pulse and chase to 120 hrs [9]: 1.24 nM
- IC50 of the reduction of GFP protein levels, free uptake 120 hrs [9]: 2.73 nM

B9: VHH A6 (C5^V6) (VHH)
VHH: EVQLVESGGGVVQPGGSLKLSCVASGTDFSINFIRWYRQAPGKQREFVAGFTATGNTNYADSMKGRFTISRDNTKNAVYLQIDSLKPEDTAVYYCYALDKWGQGTQVTVSS
- binding result [1]: binds
- binding result [2]: binds

Source: patent EP4480965A1 (Vect-Horus, dated 2024)
